Molecular target: T1, human arginase 1, trimeric (full-length untagged hArg1 expressed in E. coli) (human, UniProt P05089 1-322)
T1 sequence: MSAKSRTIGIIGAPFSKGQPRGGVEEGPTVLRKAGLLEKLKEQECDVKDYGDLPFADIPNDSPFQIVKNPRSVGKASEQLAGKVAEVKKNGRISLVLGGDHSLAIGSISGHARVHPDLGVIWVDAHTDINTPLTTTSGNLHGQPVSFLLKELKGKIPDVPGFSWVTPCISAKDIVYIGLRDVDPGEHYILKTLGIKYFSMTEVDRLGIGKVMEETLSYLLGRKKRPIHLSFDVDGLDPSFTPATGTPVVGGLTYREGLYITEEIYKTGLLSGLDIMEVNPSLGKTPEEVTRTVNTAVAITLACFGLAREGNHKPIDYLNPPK
Experiment: cell-based or functional assay

B1: Antibody mAb1 (chimeric: human VH1 and VL on a mouse IgG2a/kappa constant domain backbone) (antibody)
heavy: QVQLVQSGAEVKKPGASVKVSCKASGYTFTNYGISWVRQAPGQGLEWMGWISAYNGNTNYAQKLQGRVTMTTDTSTSTAYMELRSLRSDDTAVYYCAREGAYGYRSPYHNWFDPWGQGTLVTVSSAKTTAPSVYPLAPVCGDTTGSSVTLGCLVKGYFPEPVTLTWNSGSLSSGVHTFPAVLQSDLYTLSSSVTVTSSTWPSQSITCNVAHPASSTKVDKKIEPRGPTIKPCPPCKCPAPNLLGGPSVFIFPPKIKDVLMISLSPIVTCVVVDVSEDDPDVQISWFVNNVEVHTAQTQTHREDYNSTLRVVSALPIQHQDWMSGKEFKCKVNNKDLPAPIERTISKPKGSVRAPQVYVLPPPEEEMTKKQVTLTCMVTDFMPEDIYVEWTNNGKTELNYKNTEPVLDSDGSYFMYSKLRVEKKNWVERNSYSCSVVHEGLHNHHTTKSFSRTPGK
light: EIVMTQSPATLSLSPGERATLSCRASQSVSSYLAWYQQKPGQAPRLLIYDASNRATGIPARFSGSGSGTDFTLTISSLEPEDFAVYYCQQHSLLPRTFGGGTKVEIKRTVAAPTVSIFPPSSEQLTSGGASVVCFLNNFYPKDINVKWKIDGSERQNGVLNSWTDQDSKDSTYSMSSTLTLTKDEYERHNSYTCEATHKTSTSPIVKSFNRNEC
  IC50 (% inhibition of hArg1 activity, arginine to ornithine by LC-MS): 3.3 nM

B2: Antibody mAb2 (chimeric: human VH1 and VL on a mouse IgG1 D265A/kappa constant domain backbone) (antibody)
heavy: QVQLVQSGAEVKKPGASVKVSCKASGYTFTNYGISWVRQAPGQGLEWMGWISAYNGNTNYAQKLQGRVTMTTDTSTSTAYMELRSLRSDDTAVYYCAREGAYGYRSPYHNWFDPWGQGTLVTVSSAKTTPPSVYPLAPGSAAQTNSMVTLGCLVKGYFPEPVTVTWNSGSLSSGVHTFPAVLQSDLYTLSSSVTVPSSTWPSETVTCNVAHPASSTKVDKKIVPRDCGCKPCICTVPEVSSVFIFPPKPKDVLTITLTPKVTCVVVAISKDDPEVQFSWFVDDVEVHTAQTQPREEQFNSTFRSVSELPIMHQDWLNGKEFKCRVNSAAFPAPIEKTISKTKGRPKAPQVYTIPPPKEQMAKDKVSLTCMITDFFPEDITVEWQWNGQPAENYKNTQPIMDTDGSYFVYSKLNVQKSNWEAGNTFTCSVLHEGLHNHHTEKSLSHSPGK
light: EIVMTQSPATLSLSPGERATLSCRASQSVSSYLAWYQQKPGQAPRLLIYDASNRATGIPARFSGSGSGTDFTLTISSLEPEDFAVYYCQQHSLLPRTFGGGTKVEIKRTVAAPTVSIFPPSSEQLTSGGASVVCFLNNFYPKDINVKWKIDGSERQNGVLNSWTDQDSKDSTYSMSSTLTLTKDEYERHNSYTCEATHKTSTSPIVKSFNRNEC
  IC50 (% inhibition of hArg1 activity, arginine to ornithine by LC-MS): 5.3 nM

— patent US20240002533A1 (Merck Sharp & Dohme, published 2024)
